Test results as given in US20140308307A1 (University of Texas, published 2014).

How the values were obtained:
[1] = target: 30-kDa subunit of the cellular cleavage and polyadenylation specificity factor (CPSF30), human (human) (UniProt O95639); test: cell-based or functional assay
[2] = target: NS1A protein of the influenza A/PR8/34 (PR8) virus strain (influenza A virus A/PR8/34, UniProt P03496 1-230); test: not described
Sequence of NS1A protein of the influenza A/PR8/34 (PR8) virus strain (P03496 whole entry): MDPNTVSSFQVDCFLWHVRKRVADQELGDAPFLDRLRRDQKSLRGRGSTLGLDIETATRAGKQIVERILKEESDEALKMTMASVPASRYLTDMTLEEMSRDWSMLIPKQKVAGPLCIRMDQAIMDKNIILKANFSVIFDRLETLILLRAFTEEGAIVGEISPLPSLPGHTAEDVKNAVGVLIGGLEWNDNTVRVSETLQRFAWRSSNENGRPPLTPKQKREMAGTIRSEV

Sequence of 30-kDa subunit of the cellular cleavage and polyadenylation specificity factor (CPSF30), human (human) (O95639 whole entry): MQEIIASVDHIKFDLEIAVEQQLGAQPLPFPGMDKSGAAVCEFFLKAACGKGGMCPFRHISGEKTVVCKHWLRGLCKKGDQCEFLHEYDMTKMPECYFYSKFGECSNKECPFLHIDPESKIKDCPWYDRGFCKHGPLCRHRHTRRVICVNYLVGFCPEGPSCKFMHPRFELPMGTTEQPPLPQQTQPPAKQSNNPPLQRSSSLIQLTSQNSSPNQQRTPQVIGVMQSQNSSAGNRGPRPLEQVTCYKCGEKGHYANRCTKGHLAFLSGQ

Row | Molecule | rate of replication and virus yield during multiple cycle growth [1] | binding result [2]
1 | HK97 NS1A protein with I at position 106 changed to M and L at 103 changed to F | 100 fold | –
2 | F2F3 fragment of CPSF30 (construct not stated) (other) SGEKTVVCKHWLRGLCKKGDQCEFLHEYDMTKMPECYFYSKFGECSNKECPFLHIDPESKI | – | no binding
